How the values were obtained:
CD14+ monocytes = assay: IL-1β secretion by monocytes (ELISA); type: cell-based, human; conditions: resting and LPS-activated (100 ng/ml, 12 h) monocytes; FIG. 8
Description: FIG. 8. Effect of C5L2 blockage on IL-1β secretion by resting and activated CD4+ T cells and by monocytes. […] CD4+ T cells were isolated and left non-activated or CD3/CD46-activated as described (with or without addition of the C5aR/C5L2 double antagonist, dRA, 7 μM) and IL-1β secretion into the media measured at 24 h post activation using an ELISA. CD14+ monocytes (2.5×10^5) were left non-activated or activated with 100 ng/ml LPS for 12 h and supernatants assayed for IL-1β by ELISA. Data represent n=3 experiments with SEM for the CD4+ T cells and n=1 for monocytes (conditions were performed in duplicate and shown are the median values of each condition).
Human blood was obtained from healthy volunteers following ethical guidelines set by Kings College London (KCL) ethics committee (REC: 09/H0804/72). PBMCs were isolated by density centrifugation (Ficoll-Paque PLUS; GE healthcare, Uppsala, Sweden). Cell subsets were isolated by magnetic separation following manufacturer's instructions (Miltenyi Biotec, Auburn, Calif.). […]
The Th1/Th2/Th17 Cytometric Bead Array (BD Bioscience) was used to quantify cytokine production by CD4^+ T cells and monocytes following 12 or 36 h culture under distinct activation conditions. […] IL-1β amounts secreted into the cell media were measured by ELISA, according to the manufacturer's protocol (R&D Systems, Abingdon, UK).

[1] = test system: natural regulatory T cells (nTregs); assay: nTreg suppression assay (CFSE dilution); type: cell-based, human; conditions: nTregs pre-incubated with 7 μM dRA for 8 hr; 1:1 co-culture; FIG. 14
Description: FIG. 14. C5L2 blockage decreases suppressive activity of natural regulatory T cells (nTregs). nTregs and effector T cells from a freshly drawn human blood sample were separated by cell sorting (CD4^+CD25^hiCD127^lo Treg cells; CD4^+CD25^loCD127^hi effector T cells). nTreg cells were incubated in media containing 7 μM of the C5ar/C5L2 double antagonist (dRA) for 8 hr. Cells were then washed twice to remove the dRA and used for a suppression assay via CSFE dilution measurement in 1:1 co-culture and percentage of suppression calculated. Shown are the mean values of two separately performed experiments.
nTregs were isolated essentially as described in Yates, J., et al., Int Immunol. (2007) 19(6):785-99. […]
Principle • Label target cells (T effectors (Teff) usually) with 1 μM CFSE as described • Activate cells with and without Tregs in serial dilution (constant Teff numbers) • CFSE will be evenly split among daughter cells, so peaks on flow will correspond to each round of division (halving of CFSE) • The percentage of dividing precursors can be calculated this way. • In the presence of Tregs, the suppression of division can be estimated. […]
• 1. […] Acquire FL1 fluorescence of each well on day 4 and calculate suppression of CFSE dilution by Tregs (different methods exist for this) * If there is inadequate CFSE labelling, pulse with ^3H-Thymidine on day 5 instead, as a readout for suppression. […]

human CD4+ T cells = assay: Cytokine secretion by CD4+ T cells with C5aR or C5aR/C5L2 blockade (Cytometric Bead Array); type: cell-based
Source text: Human blood was obtained from healthy volunteers following ethical guidelines set by Kings College London (KCL) ethics committee (REC: 09/H0804/72). PBMCs were isolated by density centrifugation (Ficoll-Paque PLUS; GE healthcare, Uppsala, Sweden). Cell subsets were isolated by magnetic separation following manufacturer's instructions (Miltenyi Biotec, Auburn, Calif.). Monocytes were positively selected using anti-CD14 microbeads (average purity 97%) and CD4^+ T cells were isolated from the CD14-negative fraction using anti-CD4 microbeads (average purity 98%). Alternatively, CD4^+ T cells were isolated from purified PBMCs by cell sorting after staining with antibodies to CD14 and CD4 and CD3.
CD4^+ T cells and CD14^+ monocytes were cultured in medium (RPMI-1640 medium (Sigma-Alich, Suffolk, UK), supplemented with 1% GlutaMAX, 1% penicillin/streptomycin (both Life Technologies, Paisley, UK) and 10% FBS (HyClone Laboratories, Logan, Utah). In the case of T cells media was supplemented with 25 U/ml IL-2 (Sigma-Aldrich; or with concentrations indicated in figure legends). CD4^+ T cells (2.5×10^5) were cultured alone or together with plate-bound anti-CD3 (OKT3, Biolegend, San Diego, Calif.), anti-CD3 and anti-CD28 (CD28.2, BD Pharmingen, San Jose, Calif.) or anti-CD3 and anti-CD46 (TRA-2-10, provided by John Atkinson, Washington University, St Louis, Mo.) all immobilised onto 48-well plates at concentrations of 2 μg/ml PBS overnight at 4° C. Monocytes (2.5×10^5) were cultured either alone or in the presence of LPS or Flagellin (1 μg/ml). […] Cells were cultured at 37° C. and 5% CO2 and cytokine secetion assessed at 12, 24 or 36 h post activation.
The Th1/Th2/Th17 Cytometric Bead Array (BD Bioscience) was used to quantify cytokine production by CD4^+ T cells and monocytes following 12 or 36 h culture under distinct activation conditions. Samples were processed following manufacturer's instructions and acquired using BD FACScan. IL-1β amounts secreted into the cell media were measured by ELISA, according to the manufacturer's protocol (R&D Systems, Abingdon, UK).

[2] = activated CD4+ T cells, dRA 7 μM, PMX53 10 μM, FIG. 6

B1: A8delta71-73: Dual C5aR/C5L2 receptor antagonist; C5a variant A8 (C27A, H67F, D69R, M70S, Q71L, G73R, Arg74 deleted) lacking amino acids 71-73 (protein)
chain: TLQKKIEEIAAKYKHSVVKKCCYDGAAVNNDETCEQRAARISLGPRCIKAFTECCVVASQLRANISFKRS
For B1, the IL-1β secretion (CD14+ monocytes) was “increased IL-1β secretion”, the “suppressor function of nTregs” value [1] was “markedly reduced” and the “secretion of IFN-γ” value (human CD4+ T cells; [2]) was “increased secretion”. For the same molecule, the “secretion of IL-17” value (human CD4+ T cells; [2]) was “increased secretion” and the “secretion of IL-6” value (human CD4+ T cells; resting and activated CD4+ T cells, FIG. 7A) was “increased secretion”.
